Laboratory results from article PMC5779225.

B1: Frizzled3 (Fzd3): N42Q (protein)
parent chain: MAVSWIVFDLWLLTVFLGQIGGHSLFSCEPITLRMCQDLPYNTTFMPNLLNHYDQQTAALAMEPFHPMVNLDCSRDFRPFLCALYAPICMEYGRVTLPCRRLCQRAYSECSKLMEMFGVPWPEDMECSRFPDCDEPYPRLVDLNLVGDPTEGAPVAVQRDYGFWCPRELKIDPDLGYSFLHVRDCSPPCPNMYFRREELSFARYFIGLISIICLSATLFTFLTFLIDVTRFRYPERPIIFYAVCYMMVSLIFFIGFLLEDRVACNASSPAQYKASTVTQGSHNKACTMLFMVLYFFTMAGSVWWVILTITWFLAAVPKWGSEAIEKKALLFHASAWGIPGTLTIILLAMNKIEGDNISGVCFVGLYDVDALRYFVLAPLCLYVVVGVSLLLAGIISLNRVRIEIPLEKENQDKLVKFMIRIGVFSILYLVPLLVVIGCYFYEQAYRGIWETTWIQERCREYHIPCPYQVTQMSRPDLILFLMKYLMALIVGIPSIFWVGSKKTCFEWASFFHGRRKKEIVNESRQVLQEPDFAQSLLRDPNTPIIRKSRGTSTQGTSTHASSTQLAMVDDQRSKAGSVHSKVSSYHGSLHRSRDGRYTPCSYRGMEERLPHGSMSRLTDHSRHSSSHRLNEQSRHSSIRDLSNNPMTHITHGTSMNRVIEEDGTSA
B2: Frizzled3 (Fzd3): 2NQ (protein)
parent chain: B1 parent chain
B3: Frizzled3 (Fzd3): N356Q (protein)
parent chain: B1 parent chain

Test: surface biotinylation, NeutrAvidin pull-down, immunoblot
Settings: glycan lost; control: wild type

Protein	localisation_or_trafficking
B1	decreases
B2	changes
B3	abolishes
